For one substance, Neutralizing activity (%) Mean results are on record in patent US20210292392A1.

This assay concerns the target full length spike (S) protein of SARS-CoV-2 (SARS-CoV-2) (UniProt P0DTC2). As to the kind of experiment: cell-based or functional assay.

Regarding VRC01 (antibody), the Neutralizing activity (%) Mean at 0.0228624 µg/ml was 13.2%, the Neutralizing activity (%) Mean at 0.0685871 µg/ml is 10.4%, the Neutralizing activity (%) Mean at 0.2057613 µg/ml came to 14.4% and the Neutralizing activity (%) Mean at 0.6172839 µg/ml was determined as 24.9%. The substance further returned a Neutralizing activity (%) Mean at 1.851852 µg/ml of 8.1%, a Neutralizing activity (%) Mean at 5.555555 µg/ml of 27.1%, a Neutralizing activity (%) Mean at 16.66667 µg/ml of 26.6% and a Neutralizing activity (%) Mean at 50 µg/ml of 33.9%.
